Kd, koff and kon data for 2 molecules are collected here from patent US20240383982A1 (Genmab, published 2024).

Assay [1] deals with T1, recombinant hIgG1 Fc-tagged cynomolgus monkey B7H4 (Creative BioMart, cat. no. VTCN1-1517R) (cynomolgus monkey, UniProt Q7Z7D3 25-259 (human entry)).
T1 construct: Bought protein; also called cynomolgus monkey B7H4 extracellular domain
T1 sequence: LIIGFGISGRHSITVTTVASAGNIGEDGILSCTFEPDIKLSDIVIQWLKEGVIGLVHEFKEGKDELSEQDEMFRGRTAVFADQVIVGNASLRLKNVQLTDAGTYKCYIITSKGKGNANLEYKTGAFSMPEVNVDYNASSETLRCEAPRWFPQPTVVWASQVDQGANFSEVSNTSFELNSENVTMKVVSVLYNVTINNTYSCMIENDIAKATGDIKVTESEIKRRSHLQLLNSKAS
The assay can be described thus: BLI (Octet HTX); Fc-tagged cynomolgus B7H4 coupled to AR2G sensor, bispecific antibody in solution (monovalent B7H4 binding); 2nd experiment (average of n = 3). As to the method: In addition, the affinity of for cynomolgus monkey B7H4 was determined by BLI. […] Amine Reactive 2nd Generation (AR2G) biosensors (FortéBio, cat. no. 18-5092) were activated by reaction with 20 mM EDC (N-(3-Dimethylaminopropyl)-N′-ethylcarbodiimide hydrochloride) (FortéBio, cat. no. 18-1033) and 10 mM s-NHS (N-hydroxysulfosuccinimide sodium salt) (FortéBio, cat. no. 18-1067) for 300 s. The activated sensors were loaded with 10 μg/mL recombinant hIgG1 Fc-tagged cynomolgus monkey B7H4 (Creative BioMart, cat. no. VTCN1-1517R) in 10 mM Sodium Acetate pH 4.0 (FortéBio, cat. no. 18-1068) for 600 s and quenched with 1 M ethanolamine pH 8.5 (FortéBio, cat. no. 18-1071) for 300 s. […] A molecular mass of 150 kDa of the antibodies was used for calculations. For each antibody a reference sensor was used, which was incubated with Sample Diluent instead of antibody.
Data were acquired using Data Acquisition Software v9.0.0.49d (FortéBio) and analyzed with Data Analysis Software v9.0.0.12 (FortéBio). Data traces were corrected per antibody by subtraction of the reference sensor. The Y-axis was aligned to the last 10 s of the baseline, Interstep Correction alignment to dissociation and Savitzky-Golay filtering were applied. Data traces with a response<0.05 nm were excluded from analysis. The data was fitted with the 1:1 Global Full fit model using a window of interest for the association and dissociation times set at 100 s and 200 s respectively.
The experiment was performed as described above, with some small exceptions.
A general note: Biolayer interferometry detects binding as a change in optical thickness at a sensor tip.

Assay [2] addresses T2, mouse B7H4 ECD-His (R&D Systems, cat. no. 2154-B7-050) (mouse, UniProt Q7TSP5 29-256).
T2 construct: Bought ECD-His protein (26.6 kDa); also called mouse B7H4 extracellular domain
T2 sequence: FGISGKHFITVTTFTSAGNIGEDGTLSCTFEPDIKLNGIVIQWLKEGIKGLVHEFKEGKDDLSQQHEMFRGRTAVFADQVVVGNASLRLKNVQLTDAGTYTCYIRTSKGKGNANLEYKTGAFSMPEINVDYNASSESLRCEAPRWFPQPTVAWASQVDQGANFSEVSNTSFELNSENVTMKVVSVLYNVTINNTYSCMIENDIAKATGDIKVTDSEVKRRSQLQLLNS
The assay can be described thus: BLI (Octet HTX); antibody on anti-human IgG Fc capture sensor, mouse B7H4 ECD-His in solution; 2nd experiment. As to the method: Target binding affinity of B7H4 antibodies was determined by label-free biolayer interferometry (BLI) on an Octet HTX instrument (FortéBio). Experiments were carried out while shaking at 1,000 RPM at 30° C. […] Anti-Human IgG Fc Capture (AHC) biosensors (FortéBio, cat. no. 18-5060) were pre-conditioned by exposure to 10 mM glycine (Sigma-Aldrich, cat. no. 15527) buffer pH 1.7 for 5 s, followed by neutralization in Sample Diluent (FortéBio, cat. no. 18-1048) for 5 s; both steps were repeated 2 times. Next, AHC sensors were loaded with antibody (1 μg/mL in Sample diluent) for 600 s. […] The theoretical molecular mass of human B7H4 and mouse B7H4 (as ECD-His tagged molecules) based on their amino acid sequences (26.8 kDa and 26.6 kDa respectively) were used for calculations. For each antibody a reference sensor was used, which was incubated with Sample Diluent instead of antigen. AHC sensors were regenerated by exposure to 10 mM glycine buffer pH 1.7 for 5 s, followed by neutralization in Sample Diluent for 5 s; both steps were repeated twice. Subsequently sensors were loaded again with antibody for the next cycle of kinetics measurements.
Data were acquired using Data Acquisition Software v9.0.0.49d (FortéBio) and analyzed with Data Analysis Software v9.0.0.12 (FortéBio). Data traces were corrected per antibody by subtraction of the reference sensor. The Y-axis was aligned to the last 10 s of the baseline, Interstep Correction alignment to dissociation and Savitzky-Golay filtering were applied. Data traces with a response<0.05 nm were excluded from analysis. The data was fitted with the 1:1 Global Full fit model using a window of interest for the association and dissociation times set at 300 s and 200 s respectively.

B1: bsIgG1-huCD3-H101G-FEALxB7H4-C1-N52S-FEAR (bispecific antibody)
heavy 1: not shown
light 1: not shown
heavy 2: QVQLQQWGAGLLKPSETLSLTCAVYGGSFSGYYWSWIRQPPGKGLEWIGEISHSGSTNYNPSLKSRVTISIDTSKNQFSLKLTSVTAADTAVFYCARGLFNWNFDSWGQGTLVTVSSASTKGPSVFPLAPSSKSTSGGTAALGCLVKDYFPEPVTVSWNSGALTSGVHTFPAVLQSSGLYSLSSVVTVPSSSLGTQTYICNVNHKPSNTKVDKRVEPKSCDKTHTCPPCPAPEFEGGPSVFLFPPKPKDTLMISRTPEVTCVVVAVSHEDPEVKFNWYVDGVEVHNAKTKPREEQYNSTYRVVSVLTVLHQDWLNGKEYKCKVSNKALPAPIEKTISKAKGQPREPQVYTLPPSREEMTKNQVSLTCLVKGFYPSDIAVEWESNGQPENNYKTTPPVLDSDGSFFLYSRLTVDKSRWQQGNVFSCSVMHEALHNHYTQKSLSLSPGK
light 2: DIQMTQSPSSLSASVGDRVTITCRASQGIRNDLGWYQQKPGKAPKRLIYGASSLQSGVPSRFSGSGSGTEFTLTISSLQPEDFATYYCLQHNSYPRTFGQGTTVEIKRTVAAPSVFIFPPSDEQLKSGTASVVCLLNNFYPREAKVQWKVDNALQSGNSQESVTEQDSKDSTYSLSSTLTLSKADYEKHKVYACEVTHQGLSSPVTKSFNRGEC
notes: also called bslgG1-huCD3-H101G-FEALxB7H4-C1-N52S-FEAR; BslgG1-huCD3-H101G-FEALxB7H4-C1-N52S-FEAR
Usually Kd stands for the constant that tells how readily two partners part at equilibrium. What is called koff is a measure of how fast the partners let go of each other. Usually kon stands for a measure of how fast the partners come together. With B1, in assay [1], the Kd is 25 nM, the off-rate (koff) was found to be 0.0027 s⁻¹ and the kon was 120000 M⁻¹ s⁻¹.

B2: IgG1-B7H4-C5-FEAR (antibody, V domains shown)
VH: QLQLQESGPGLVKPSETLSLTCTVSGGSIKSGSYYWGWIRQPPGKGLEWIGNIYYSGSTYYNPSLRSRVTISVDTSKNQFSLKLSSVTAADTAVYYCAREGSYPNQFDPWGQGTLVTVSS
VL: EIVMTQSPATLSVSPGERATLSCRASQSVSSNLAWYQQKPGQAPRLLIYGASTRATGIPARFSGSGSGTEFTLTISSLQSEDFAVYYCQQYHSFPFTFGGGTKVEIKR
notes: Full length IgG1 FEAR, kappa; variable domains from US20190085080A1
For the molecule B2, in assay [2], the Kd is 14 nM, the koff is 0.0024 s⁻¹ and the kon amounted to 170000 M⁻¹ s⁻¹.
